# T1: cyno CD123 ECD displayed on pDisplay-transfected cells (cynomolgus monkey)
# T1 construct: ECD anchored on the surface of stably transfected HEK293 cells; also called cynoCD123 SP1 cells; cynoCD123 cells
# T1 chain: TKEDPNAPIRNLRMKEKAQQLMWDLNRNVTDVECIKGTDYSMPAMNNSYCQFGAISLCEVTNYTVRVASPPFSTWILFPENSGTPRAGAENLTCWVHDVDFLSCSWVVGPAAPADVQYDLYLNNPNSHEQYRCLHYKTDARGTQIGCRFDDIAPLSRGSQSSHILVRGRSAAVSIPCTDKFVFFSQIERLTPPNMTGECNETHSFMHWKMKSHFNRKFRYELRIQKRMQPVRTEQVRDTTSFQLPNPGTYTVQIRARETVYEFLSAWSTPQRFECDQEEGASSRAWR
# Target: T1, cyno CD123 ECD displayed on …
# Assay: MSD-CAT on cyno pDisplay cells
# Method: Cell lines used were human pDisplay CD and cyno pDisplay CD123SP1. […] These samples were prepared in DMEM Glutamax medium containing 0.05% Azide, 1% BSA, 3 mM EDTA. The receptor numbers of (3.15-4.18)×10⁶ hCD123/cell and (4.78-9.24) 10⁶ cyCD123/cell were converted to M receptor concentration in the mixture on the basis of the volume of reaction, the cell density (cells/L) and the Avogadro's number. […] After equilibration the plate was centrifuged for 5 min ˜1000 rpm and free anti-CD3 detected on the supernatant. […] The assay buffer was removed without washing and 50 μL/well of 0.7 μg/mL of biotinylated antigen in assay buffer were added to MSD plates and incubated overnight (˜16 hr at 4° C.). After overnight incubation, the plates were blocked by adding 150 μL/well of assay buffer without removing coating antigen, incubated for ˜1 hr at ambient temperature and washed 5 times with wash buffer (assay buffer without BSA). 50 μL/well of the supernantants from samples plate were transferred to antigen-coated plates, incubated for 60 min, and then washed three times with wash Buffer. […] After 1 hr the plates were washed and 150 μL of MSD Read Buffer (prepared by diluting 1:4 of stock into d. H₂O) were added per well. The plates were read immediately on the MSD Sector Imager 6000 Reader for luminescence levels.
binder,measurement,value
"I3RB18 (antibody, IgG1, V domains shown, IgG1; also called 13RB18; mAb I3RB18) VH: EVQLVQSGAEVKKPGESLKISCKGSGYSFTSYWISWVRQMPGKGLEWMGIIDPSDSDTRYSPSFQGQVTISADKSISTAYLQWSSLKASDTAMYYCARGDGSTDLDYWGQGTLVTVSS VL: EIVLTQSPGTLSLSPGERATLSCRASQSVSSSYLAWYQQKPGQAPRLLIYGASSRATGIPDRFSGSGSGTDFTLTISRLEPEDFAVYYCQQDYGFPWTFGQGTKVEIK",Kd,> 12 nM
